{"source": "paper PMC11831497", "conditions_in_all_cases": "glycan lost; control: CTSD WT", "key": {"[1]": {"test": "immunofluorescence co-localisation with EEA1, Rab7, LAMP1, SW480"}, "[2]": {"test": "cycloheximide chase, western blot"}, "[3]": {"test": "western blot at equal CTSD expression, SW480"}, "western blot": {"test": "western blot"}, "[4]": {"test": "fluorogenic Cathepsin D activity kit, cell lysate"}, "[5]": {"test": "CTSD secretion from CRC cells"}}, "data": [{"substance": "Cathepsin D (CTSD): N263Q", "values": [{"measurement": "localisation_or_trafficking", "setting": "[1]", "result": "abolishes"}, {"measurement": "degradation_or_half_life", "setting": "[2]", "result": "decreases"}, {"measurement": "other: cellular level of substrate ACADM", "setting": "[3]", "result": "increases"}, {"measurement": "other: ferroptosis protein levels (SLC7A11, GPX4)", "setting": "western blot", "result": "decreases"}, {"measurement": "enzymatic_activity", "setting": "[4]", "result": "decreases"}, {"measurement": "expression_or_secretion", "setting": "[5]", "result": "decreases"}]}, {"substance": "Cathepsin D (CTSD): N263Q/N134Q", "values": [{"measurement": "localisation_or_trafficking", "setting": "[1]", "result": "abolishes"}, {"measurement": "enzymatic_activity", "setting": "[4]", "result": "decreases"}, {"measurement": "expression_or_secretion", "setting": "[5]", "result": "increases"}]}]}
